Measurements published in paper PMC7369975, “Scalable High-Performance Production of Recombinant Horseradish Peroxidase from E. coli Inclusion Bodies” (International Journal of Molecular Sciences, 2020).

Key:
Type in all cases: biochemical, Armoracia rusticana
[1] = system: T1, pHRP (commercial plant HRP Type VI-A); experiment: absorbance at […] nm, initial rate, 96-well plate; settings: 1 mM H2O2 (saturating), 50 mM phosphate-citrate, pH 5; TMB 0.02-0.55 mM
T1 construct: gene PRXC1A; native glycosylated enzyme from horseradish root, commercial preparation, variable isoenzyme mixture, 44 kDa

[2] = system: T1, pHRP (commercial plant HRP Type VI-A); experiment: absorbance at […] nm, initial rate, 96-well plate; settings: 1 mM H2O2 (saturating), 50 mM phosphate-citrate, pH 5, 30 °C; ABTS 0.1-7 mM
purified protein = substrate: Cc1cc(-c2cc(C)c(N)c(C)c2)cc(C)c1N; experiment: purified protein; settings: 1 mM H2O2 (saturating), 50 mM phosphate-citrate, pH 5, TMB 0.02-0.55 mM

`Cc1cc(-c2cc(C)c(N)c(C)c2)cc(C)c1N` [TMB, 3,3′,5,5′-tetramethylbenzidine] was tested, and the Km [1] was 101 ± 20 µM.

`CCn1c(=NN=c2sc3cc(S(=O)(=O)O)ccc3n2CC)sc2cc(S(=O)(=O)O)ccc21` [ABTS, 2,2′-azino-bis (3-ethylbenzothiazoline-6-sulphonic acid)] gave a Km [2] of 700 ± 140 µM.

B1: rHRP (refolded recombinant HRP, variant C1A) (Armoracia rusticana) (protein)
chain: QLTPTFYDNSCPNVSNIVRDTIVNELRSDPRIAASILRLHFHDCFVNGCDASILLDNTTSFRTEKDAFGNANSARGFPVIDRMKAAVESACPRTVSCADLLTIAAQQSVTLAGGPSWRVPLGRRDSLQAFLDLANANLPAPFFTLPQLKDSFRNVGLNRSSDLVALSGGHTFGKNQCRFIMDRLYNFSNTGLPDPTLNTTYLQTLRGLCPLNGNLSALVDFDLRTPTIFDNKYYVNLEEQKGLIQSDQELFSSPNATDTIPLVRSFANSTQTFFNAFVEAMDRMGNITPLTGTQGQIRLNCRVVNSNS
B1 showed a Km (purified protein) of 105 ± 14 µM, a Vmax (purified protein) of 7150 µmol/min/mg and a kcat (purified protein) of 4170 ± 207 s⁻¹. For the same molecule, the kcat/Km (purified protein) was 3.96e+07 ± 5.66e+06 M⁻¹ s⁻¹.
